Measured values: patent US20140120109A1 (Regeneron, published 2014)
One block for each binder: values may come before it.

How the values were obtained:
[1] = molecular target: T1, rat TL1A, soluble, CHO-expressed, residues 76-252 of SEQ ID NO:258 with N-terminal His6-tag (rat, UniProt Q8K3Y7 76-252); experiment: SPR 37C, mAb captured; kd set at 1e-6 1/s
T1 construct: also called rTL1A; rTL1A (CHO)
T1 sequence: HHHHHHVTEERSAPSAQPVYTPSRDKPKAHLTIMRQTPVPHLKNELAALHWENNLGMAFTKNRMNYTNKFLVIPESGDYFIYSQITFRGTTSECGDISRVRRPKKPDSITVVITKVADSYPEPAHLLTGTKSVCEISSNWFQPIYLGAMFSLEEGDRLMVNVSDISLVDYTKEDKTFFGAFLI
Experimental: (§1) Measurements were conducted on a T100 BIACORE™ instrument. […] Kinetic association (kₐ) and dissociation (kd) rate constants were determined by fitting the data to a 1:1 binding model using BIAevaluation 4.1 curve fitting software (BIAcore Life Sciences). Molar concentrations of TL1A/Fhm used in the data fitting assumed a monomeric state for TL1A in solution. Binding dissociation equilibrium constants (KD) and dissociative half-lives (t_{1/2}) were calculated from the kinetic rate constants as: KD (M)=kd/kₐ; and t_{1/2} (min)=[In2/(60*kd)].

[2] = molecular target: T2, mouse TL1A, soluble, CHO-expressed, residues 76-252 of SEQ ID NO:250 with N-terminal His6-tag (mouse, UniProt Q5UBV8 76-252); experiment: SPR 25C, mAb captured; 25 C, CHO-expressed mTL1A, SPR
T2 construct: also called mTL1A; mTL1A (CHO)
T2 sequence: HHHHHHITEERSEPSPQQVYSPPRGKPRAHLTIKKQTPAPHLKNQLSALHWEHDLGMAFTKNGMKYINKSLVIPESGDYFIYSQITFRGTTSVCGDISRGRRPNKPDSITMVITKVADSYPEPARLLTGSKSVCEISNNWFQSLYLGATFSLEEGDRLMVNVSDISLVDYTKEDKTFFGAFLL
Experimental: as §1

[3] = molecular target: T3, Fhm, hTL1A(Q167R), soluble, CHO-expressed, residues 72-251 of SEQ ID NO:246 (human, UniProt O95150 72-251); experiment: ELISA, blocks FHM (10 pM) binding hDcR3-Fc; blocking of FHM binding to DcR3
T3 construct: also called Fhm (CHO); FHM (CHO)
T3 chain: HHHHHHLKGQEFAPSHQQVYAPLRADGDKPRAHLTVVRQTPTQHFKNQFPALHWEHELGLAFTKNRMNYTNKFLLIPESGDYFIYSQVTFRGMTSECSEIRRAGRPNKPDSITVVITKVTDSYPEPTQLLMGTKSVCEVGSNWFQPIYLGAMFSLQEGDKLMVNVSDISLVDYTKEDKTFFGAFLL
Experimental: The ability of antibodies to block human TL1A binding to its cognate receptors, the DR3 and DcR3 receptors, was measured using a competition sandwich ELISA. In addition, blocking of a human TL1A variant FHM (human TL1A Q167R) and the cynomolgus monkey (Macaca fascicularis) TL1A (MfTL1A) protein binding to the human DR3 or DcR3 receptors was measured in the same manner. Constant amounts of biotinylated human TL1A or FHM (both expressed with a 6-His tag in CHO cells) or biotinylated MfTL1A (expressed in CHO cells) were separately titrated with varying amounts of antibodies. The antibody-protein complexes were incubated in solution (1 hr, 25° C.) and then transferred to microtiter plates coated with human DR3 (hDR3) or human DcR3 (hDcR3) expressed as human IgG1 Fc fusion proteins. After one hour at 25° C. the wells were washed, and bound human or monkey TL1A was detected with streptavidin conjugated with horseradish peroxidase (HRP). Wells were developed with a TMB solution to produce a colorimetric reaction and quenched with aqueous sulfuric acid before reading absorbance at 450 nm on a Perkin-Elmer Victor X5 plate reader. A sigmoidal dose-response curve was fit to the data using the Prism™ data analysis package. […] Both fully human anti-hTL1A mAbs and comparator antibodies, i.e., control mAb1 (an anti-hTL1A antibody with heavy and light chain variable domains having the amino acid sequences corresponding to SEQ ID NOS:21 and 27, respectively, of US 2009/0280116) and control mAb3 (an anti-hTL1A antibody with heavy and light chain variable domains having the amino acid sequences corresponding to SEQ ID NOS:57 and 48, respectively, of US 2009/0280116), were included in the study. NB: No binding under the conditions tested; NT: Not tested. Concentrations of biotinylated soluble ligands: (1) 150 pM; (2) 500 pM; (3) 10 pM; and (4) 50 pM.

[4] = molecular target: T4, cynomolgus monkey TL1A, soluble, CHO-expressed, residues 72-251 of SEQ ID NO:248 with N-terminal His6-tag (cynomolgus monkey (Macaca fascicularis), UniProt O95150 72-251 (human entry)); experiment: SPR 25C, mAb captured; SPR, 25 C
T4 construct: also called MfTL1A; MfTL1A (CHO)
T4 chain: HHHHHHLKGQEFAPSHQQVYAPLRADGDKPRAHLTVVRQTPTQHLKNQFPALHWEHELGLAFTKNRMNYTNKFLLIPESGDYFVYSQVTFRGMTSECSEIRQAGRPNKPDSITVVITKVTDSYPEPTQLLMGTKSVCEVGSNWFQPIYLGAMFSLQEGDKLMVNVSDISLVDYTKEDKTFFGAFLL

[5] = molecular target: T4, cynomolgus monkey TL1A, soluble, …; experiment: SPR 37C, mAb captured; SPR, 37 C
Experimental: as §1

[6] = molecular target: T5, human TL1A, soluble, CHO-expressed, residues 72-251 of SEQ ID NO:244 with N-terminal His6-tag (human, UniProt O95150 72-251); experiment: SPR 25C, mAb captured; kd set at 1e-6 1/s
T5 construct: also called hTL1A; hTL1A (CHO)
T5 sequence: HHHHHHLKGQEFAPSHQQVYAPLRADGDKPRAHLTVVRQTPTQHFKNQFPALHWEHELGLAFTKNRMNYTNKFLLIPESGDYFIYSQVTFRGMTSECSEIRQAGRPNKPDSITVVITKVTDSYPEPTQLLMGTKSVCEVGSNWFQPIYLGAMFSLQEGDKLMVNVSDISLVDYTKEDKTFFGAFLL
Experimental: as §1

[7] = molecular target: T4, cynomolgus monkey TL1A, soluble, …; experiment: ELISA, blocks MfTL1A (500 pM) binding hDR3-Fc; blocking of MfTL1A binding to hDR3
Experimental: The ability of antibodies to block human TL1A binding to its cognate receptors, the DR3 and DcR3 receptors, was measured using a competition sandwich ELISA. In addition, blocking of a human TL1A variant FHM (human TL1A Q167R) and the cynomolgus monkey (Macaca fascicularis) TL1A (MfTL1A) protein binding to the human DR3 or DcR3 receptors was measured in the same manner. Constant amounts of biotinylated human TL1A or FHM (both expressed with a 6-His tag in CHO cells) or biotinylated MfTL1A (expressed in CHO cells) were separately titrated with varying amounts of antibodies. The antibody-protein complexes were incubated in solution (1 hr, 25° C.) and then transferred to microtiter plates coated with human DR3 (hDR3) or human DcR3 (hDcR3) expressed as human IgG1 Fc fusion proteins. After one hour at 25° C. the wells were washed, and bound human or monkey TL1A was detected with streptavidin conjugated with horseradish peroxidase (HRP). Wells were developed with a TMB solution to produce a colorimetric reaction and quenched with aqueous sulfuric acid before reading absorbance at 450 nm on a Perkin-Elmer Victor X5 plate reader. A sigmoidal dose-response curve was fit to the data using the Prism™ data analysis package. […]

B2: H4H1681N (antibody, human IgG4 S228P, V domains shown)
VH: EVQLLESGGGLVQPGKSLRLSCAVSGFTFSTYGMNWVRQAPGKGLEWVSSISGTGRTTYHADSVQGRFTVSRDNSKNILYLQMNSLRADDTAVYFCTKERGDYYYGVFDYWGQGTLVTVSS
VL: DIQMTQSPSTLSASVGDRVTITCRASQTISSWLAWYQQTPEKAPKLLIYAASNLQSGVPSRFSGSGSGTEFTLTISSLQPDDFATYYCQQYHRSWTFGQGTKVEIT
IC50 [3]: 0.09 nM

B3: H4H1750P (antibody, human IgG4 S228P, V domains shown)
VH: QVQLVESGGGVVQPGRSLRLSCVASGFTFSNYGMHWVRQAPGKGLEWVAVISYDGNNDLYSDSVKGRFTISRDNAKNALSLQMTSLRAEDTAVYYCARDSTMTPYYYHGIDVWGQGTTVTVSA
VL: DIQMTQSPSSLSASVGDRVTITCRASQDIRNDLGWYQQKPGKAPKRLIYAASSLQSGVPSRFSGSGSGTDFTLTISSLQPEDFATYYCLQHNSYPPTFGQGTKVEIK
Kd [4]: 8.6 nM
t1/2 [4]: 21 min
Kd [5]: 17.1 nM
t1/2 [5]: 11 min
t1/2 [6]: ≥ 192 h
IC50 [7]: 5.21 nM

Other lines, results leading:

Kd [1]: ≤ 0.00061 nM
t1/2 [1]: ≥ 192 h
Kd [2]: 7.1 nM
t1/2 [2]: 12 min
B1: H4H1818N (antibody, human IgG4 S228P, V domains shown)
VH: RLQLVESGGGLVKPGGSLKLSCAASGFTISDYYMSWIRQAPGKGLEWVSYIGGSGSTIYYADSVKGRFTISRDNAKNSLYLQMNSLRAEDTAVYYCAREDADSYYYYGMDVWGQGTTVTVSS
VL: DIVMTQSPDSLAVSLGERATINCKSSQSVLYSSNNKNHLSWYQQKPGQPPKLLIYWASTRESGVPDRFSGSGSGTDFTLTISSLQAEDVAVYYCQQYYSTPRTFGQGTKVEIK
notes: human IgG4(S108P) form of H2M1818N

IC50 [3]: 0.436 nM
B4: H4H1805N (antibody, human IgG4 S228P, V domains shown)
VH: QVQLQQWGAGLLKPSETLSLTCAVYGGSFTGFYWSWIRQPPGKGLEWIGEINHRGNTNYNPSLKSRVTMSVDTSKNQFSLNMISVTAADTAMYFCASPFYDFWSGSDYWGQGTLVTVSS
VL: DIMLTQTPLTSPVTLGQPASISCKSSQSLVHSDGNTYLSWLQQRPGQPPRLLFYKISNRFSGVPDRFSGSGAGTDFTLKISRVEAEDVGVYYCMQATQFPLTFGGGTKVEIK
notes: human IgG4(S108P) form of H2M1805N
